Data on two molecules can be found in article PMC4449183, “Structural-Functional Analysis Reveals a Specific Domain Organization in Family GH20 Hexosaminidases” (PLoS ONE, 2015).

Broadly, the stoichiometry N is the number of molecules, sites or subunits per partner or assembly.

The labels stand for the following.
T1: Construct A (residues 40–528) of B. bifidum lacto-N-biosidase, GH20b-GH20-α (Bifidobacterium bifidum (strain DSM …, UniProt B3TLD6))
T1 chain: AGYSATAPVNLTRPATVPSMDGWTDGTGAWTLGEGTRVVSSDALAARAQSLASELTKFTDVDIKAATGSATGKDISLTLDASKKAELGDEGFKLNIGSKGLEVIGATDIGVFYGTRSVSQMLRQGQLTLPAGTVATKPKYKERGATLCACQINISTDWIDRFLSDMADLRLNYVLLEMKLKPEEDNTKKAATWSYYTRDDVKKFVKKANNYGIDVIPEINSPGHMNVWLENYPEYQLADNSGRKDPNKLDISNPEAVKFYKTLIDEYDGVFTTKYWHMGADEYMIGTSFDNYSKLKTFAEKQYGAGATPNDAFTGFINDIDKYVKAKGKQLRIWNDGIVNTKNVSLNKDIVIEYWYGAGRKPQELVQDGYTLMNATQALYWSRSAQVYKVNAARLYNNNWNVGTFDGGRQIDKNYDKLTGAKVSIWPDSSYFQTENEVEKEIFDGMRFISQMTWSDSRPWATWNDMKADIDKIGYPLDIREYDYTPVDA

B1: Construct A (residues 40–528) of B. bifidum lacto-N-biosidase, GH20b-GH20-α (domain or fragment, Bifidobacterium bifidum, UniProt B3TLD6 40-528, looked up)
chain: T1 chain
notes: Lacto-N-biosidase (LnbB), Bifidobacterium bifidum, residues 40-528 (GH20b and GH20 domains with the extra α-helix); synthetic codon-optimised gene in pET28a+ (NdeI/Bpu1102); Mainly dimeric in solution by gel filtration; theoretical mass 57 kDa; also called GH20b-GH20-α construct; source: E. coli BL21 (DE3) star, purified (Ni2+ HiTrap chelating column, Superdex 200)
B2: Construct F (546–776) of B. bifidum lacto-N-biosidase, the single lectin domain (domain or fragment, Bifidobacterium bifidum, UniProt B3TLD6 546-776, looked up)
chain: LITTPDGYYQMKDTVSGKCLALFTGSKHLDVVTQVGARPELRNCADVSVGQDQRNTANERNTQKWQIRADKDGKYTISPALTQQRLAIATGNEQNIDLETHRPAAGTVAQFPADLVSDNALFTLTGHMGMSATVDSKTVNPASPSKITVKVRAASNANTGDVTVTPVVPEGWEIKPGSVSLKSIPAGKAAIAYFNVVNTTGTGDATVQFKLTNTKTGEELGTTSVALTGSL

Data set [1] concerns the molecule itself. The data set can be described thus: SEC; single purified proteins on XK16/60 Superdex 200 in buffer A (Na2HPO4 20 mM, NaCl 150 mM, pH 7.5). (In general: Size exclusion chromatography separates by hydrodynamic size, large species first.)
In data set [2] the target is T1, Construct A (residues 40–528) of B. …. The data set can be described thus: SEC co-elution with SDS-PAGE, plus activity complementation assay.
Data set [3] concerns the target B1. The data set can be described thus: cell-based or functional assay.

As for B1, the “stoichiometry N” value in data set [1] is 2.

For the molecule B2, the binding result in data set [2] is “binds”. Further, the “hydrolytic activity on p-nitrophenyl β-lacto-N-bioside of 50 nM construct A with 25 nM-500 nM construct F (pH 4.5, 30°C), relative to the full length enzyme; levels off at a molar ratio of 1:6” value in data set [3] is 11%.
